The text below walks through data of patent US11260098B2, “Method for suppressing obesity or development of obesity” (priority 2014, dated 2022).

In one series the test system is mice. As to the kind of experiment: Conditioned taste aversion preference test. The format is in vivo. The conditions noted are these: i.p. 0.5 ml, dose giving about 1/2 food suppression (1/4 dilution, 1/16 dilution, undiluted filtrate), FIG. 14. As to the method: 8. […] To define whether the appetite-suppressing effects induced by the undiluted solution of liquid component, the residual liquid containing the >3,000 component, and the filtrated liquid containing the <3,000 component were non-specific, a conditioned taste aversive test (a conditioned taste aversion preference test) was carried out in mice. For 5 days, each of mice was adapted to two bottles containing water, allowing to the drinking schedule of 2 hours per day (10:00 am to 12:00). On Day 6 of the test, each mice was allowed to drink water for 30 minutes followed by installation of 2 bottles added with saccharine solution (0.15%). Thereafter, saline, the liquid components or lithium chloride (molecular weight: 42.4 daltons) solution, each in an amount of 0.5 ml, was intraperitoneally administered to mice (n=5), and the conditions were set up as the aversion learning of the taste against saccharine solution. Subsequently, each of mice was subjected to drink for 90 minutes using 2 botties with water. […] On Day 8 of the test, the animals were allowed to drink for 30 minutes using 2 bottles with either water or saccharine solution, and the preference ratio for drinking of saccharine solution (the amounts of saccharine solution intake÷the amounts of entire water intake for 2 bottles) was calculated. […] The data are expressed as mean value±standard deviation. […]

Another series deals with rat. The conditions noted are these: centrally administered to the rat ventricle; cited from earlier work.
For series [1] the following is noted: intraperitoneal administration; cited from earlier work.

As for `[Cl-].[Li+]` [lithium chloride], the “preference intake of saccharine solution” value in the series on mice is on record as “significantly suppressed”.

B1: nesfatin-1: satiety molecule generated by processing of the secretory protein nesfatin; human nesfatin-1 9,695 daltons (protein, UniProt P80303 25-106, looked up)
Nesfatin-1: VPIDIDKTKVQNIHPVESAKIEPPDTGLYYDEYLKQVIDVLETDKHFREKLQKADIEEIKSGRLSKELDLVSHHVRTKLDEL
modifications: Nesfatin-1
notes: satiety molecule generated by processing of the secretory protein nesfatin; human nesfatin-1 9,695 daltons
Take B1: the food intake entry with rat is “significantly suppressed”. The appetite suppression result in series [1] was “induced appetite suppression in a dose-dependent manner”.
